Each sequence was assayed on Escherichia coli TOP10 (assay: shrunken log2 fold change of peptide-encoding DNA abundance (4.5 h post-induction vs induction); higher = less antimicrobial activity (less host growth inhibition)). Conditions: time post-induction: 4.5 h; library: site-saturation at positions 5, 18, 19, 20.
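Note: peptides expressed intracellularly from a pBAD plasmid library in pooled LB shake-flask culture, induced with 0.3% L-arabinose, DNA abundance read by NGS, three biological replicates, DESeq2 with apeglm shrinkage.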

Row | Sequence | shrunken log2 fold change
1 | RRIRMRPPRLPRPRPRPLMYPRP | -0.295
2 | RRIRERPPRLPRPRPRPADWPRP | 0.349
3 | RRIRWRPPRLPRPRPRPTEDPRP | 0.0661
4 | RRIRARPPRLPRPRPRPPNWPRP | 0.59
5 | RRIRIRPPRLPRPRPRPLNKPRP | -0.398
6 | RRIRARPPRLPRPRPRPWVMPRP | -0.156
7 | RRIRTRPPRLPRPRPRPRSGPRP | 0.284
8 | RRIRQRPPRLPRPRPRPDFYPRP | -0.288
9 | RRIRDRPPRLPRPRPRPNQIPRP | -0.044
10 | RRIRTRPPRLPRPRPRPWFLPRP | -0.401
11 | RRIRNRPPRLPRPRPRPKLLPRP | 0.127
12 | RRIRPRPPRLPRPRPRPMAQPRP | 0.177
13 | RRIRTRPPRLPRPRPRPEENPRP | -0.0317
14 | RRIRGRPPRLPRPRPRPRQGPRP | 0.654
15 | RRIRGRPPRLPRPRPRPENDPRP | 1.74
16 | RRIRARPPRLPRPRPRPSGVPRP | -0.136
17 | RRIRDRPPRLPRPRPRPWHPPRP | -0.0206
18 | RRIRTRPPRLPRPRPRPPDFPRP | 0.0547
19 | RRIRFRPPRLPRPRPRPQTQPRP | 0.0508
20 | RRIRNRPPRLPRPRPRPMIYPRP | -0.265
21 | RRIRCRPPRLPRPRPRPDKTPRP | -0.0581
22 | RRIRRRPPRLPRPRPRPHCGPRP | -0.0836

Row | Sequence | shrunken log2 fold change
23 | RRIRKRPPRLPRPRPRPLHDPRP | 0.169
24 | RRIRSRPPRLPRPRPRPHWNPRP | -0.429
25 | RRIRKRPPRLPRPRPRPKQLPRP | 0.417
26 | RRIRNRPPRLPRPRPRPQASPRP | -0.187
27 | RRIRQRPPRLPRPRPRPMGWPRP | 0.379
28 | RRIRVRPPRLPRPRPRPSRMPRP | -0.0384
29 | RRIRSRPPRLPRPRPRPAYDPRP | -0.477
30 | RRIRGRPPRLPRPRPRPMYIPRP | -0.396
31 | RRIRCRPPRLPRPRPRPNRQPRP | -0.216
32 | RRIRPRPPRLPRPRPRPNFEPRP | 0.275
33 | RRIRDRPPRLPRPRPRPLKGPRP | -0.0274
34 | RRIRHRPPRLPRPRPRPYTEPRP | -0.204
35 | RRIRLRPPRLPRPRPRPKEYPRP | -0.567
36 | RRIRCRPPRLPRPRPRPIYRPRP | -0.318
37 | RRIRARPPRLPRPRPRPCMCPRP | 0.118
38 | RRIRYRPPRLPRPRPRPCLNPRP | -0.216
39 | RRIRLRPPRLPRPRPRPTHRPRP | 0.101
40 | RRIRPRPPRLPRPRPRPMNYPRP | -0.736
41 | RRIRPRPPRLPRPRPRPIALPRP | -0.0697
42 | RRIRSRPPRLPRPRPRPADTPRP | -0.0432
43 | RRIRDRPPRLPRPRPRPYWRPRP | -0.0818
44 | RRIRQRPPRLPRPRPRPTRRPRP | 0.556

Row | Sequence | shrunken log2 fold change
45 | RRIRARPPRLPRPRPRPWKFPRP | -0.00178
46 | RRIRYRPPRLPRPRPRPHSMPRP | -0.0542
47 | RRIRYRPPRLPRPRPRPRCYPRP | 0.0145
48 | RRIRKRPPRLPRPRPRPGVPPRP | 0.364
49 | RRIRGRPPRLPRPRPRPAFFPRP | 0.787
50 | RRIRYRPPRLPRPRPRPCITPRP | -0.00269
51 | RRIRFRPPRLPRPRPRPQFHPRP | -0.839
52 | RRIRNRPPRLPRPRPRPWESPRP | 0.291
53 | RRIRYRPPRLPRPRPRPSGRPRP | -0.261
54 | RRIRNRPPRLPRPRPRPMHDPRP | -0.117
55 | RRIRLRPPRLPRPRPRPKYRPRP | 0.0356
56 | RRIRYRPPRLPRPRPRPKYAPRP | -0.532
57 | RRIRCRPPRLPRPRPRPNGHPRP | -0.023
58 | RRIRNRPPRLPRPRPRPGKMPRP | -0.203
59 | RRIRYRPPRLPRPRPRPWALPRP | -0.355
60 | RRIRERPPRLPRPRPRPKENPRP | -0.135
61 | RRIRHRPPRLPRPRPRPAWQPRP | 0.0329
62 | RRIRCRPPRLPRPRPRPVSSPRP | -0.0119
63 | RRIRTRPPRLPRPRPRPLQSPRP | -0.00232
64 | RRIRARPPRLPRPRPRPKCCPRP | 0.165
65 | RRIRIRPPRLPRPRPRPGWMPRP | 0.0116
66 | RRIRQRPPRLPRPRPRPCICPRP | -0.542

Row | Sequence | shrunken log2 fold change
67 | RRIRKRPPRLPRPRPRPRNDPRP | 0.352
68 | RRIRRRPPRLPRPRPRPRGDPRP | 0.393
69 | RRIRLRPPRLPRPRPRPSHGPRP | -0.0685
70 | RRIRNRPPRLPRPRPRPSEIPRP | -0.0685
71 | RRIRRRPPRLPRPRPRPFFDPRP | 0.296
72 | RRIRHRPPRLPRPRPRPLINPRP | -0.201
73 | RRIRNRPPRLPRPRPRPCKHPRP | -0.344
74 | RRIRNRPPRLPRPRPRPQCHPRP | -0.42
75 | RRIRMRPPRLPRPRPRPQYMPRP | -0.969
76 | RRIRFRPPRLPRPRPRPEAIPRP | 0.104
77 | RRIRKRPPRLPRPRPRPAWRPRP | 1.18
78 | RRIRNRPPRLPRPRPRPYHTPRP | -0.0317
79 | RRIRTRPPRLPRPRPRPNDPPRP | -0.149
80 | RRIRLRPPRLPRPRPRPFPLPRP | -0.0787
81 | RRIRTRPPRLPRPRPRPMVSPRP | -0.0669
82 | RRIRTRPPRLPRPRPRPVRTPRP | 0.149
83 | RRIRWRPPRLPRPRPRPPRWPRP | 0.591
84 | RRIRGRPPRLPRPRPRPSTMPRP | 0.21
85 | RRIRHRPPRLPRPRPRPFWWPRP | 0.0369
86 | RRIRWRPPRLPRPRPRPIDPPRP | -0.193
87 | RRIRVRPPRLPRPRPRPQMLPRP | -0.158
88 | RRIRNRPPRLPRPRPRPFFEPRP | -0.0529

Row | Sequence | shrunken log2 fold change
89 | RRIRDRPPRLPRPRPRPLKHPRP | -0.927
90 | RRIRDRPPRLPRPRPRPVSEPRP | 0.514
91 | RRIRYRPPRLPRPRPRPSKDPRP | -0.642
92 | RRIRSRPPRLPRPRPRPPAMPRP | 0.344
93 | RRIRVRPPRLPRPRPRPDRLPRP | 0.314
94 | RRIRQRPPRLPRPRPRPNAPPRP | 0.105
95 | RRIRMRPPRLPRPRPRPMSLPRP | -0.207
96 | RRIRARPPRLPRPRPRPKIPPRP | 0.174
97 | RRIRIRPPRLPRPRPRPFAMPRP | -0.98
98 | RRIRTRPPRLPRPRPRPNSQPRP | -0.00223
99 | RRIRYRPPRLPRPRPRPPPSPRP | 0.936
100 | RRIRNRPPRLPRPRPRPTFRPRP | -0.22
101 | RRIRDRPPRLPRPRPRPMPNPRP | -0.258
102 | RRIRPRPPRLPRPRPRPHDSPRP | -0.134
103 | RRIRLRPPRLPRPRPRPDNDPRP | -0.228
104 | RRIRIRPPRLPRPRPRPRKMPRP | 0.142
105 | RRIRIRPPRLPRPRPRPTANPRP | -0.149
106 | RRIRIRPPRLPRPRPRPLKQPRP | 0.0465
107 | RRIRTRPPRLPRPRPRPCIIPRP | -0.0804
108 | RRIRTRPPRLPRPRPRPSARPRP | 0.0995
109 | RRIRMRPPRLPRPRPRPCPHPRP | 0.0961

Reference: the supplement of paper PMC9112550, “Optimization of the antimicrobial peptide Bac7 by deep mutational scanning” (BMC Biology, 2022)
